Data taken from patent US20110177074A1 (ZymoGenetics, published 2011).

Columns and labels:
human VEGF-A165 [1] = target: T1, human VEGF-A165 (human, UniProt P15692 207-395); experiment: SPR, VEGF-A immobilised, positive control, 1:1 dissociation fit
T1 construct: R&D Systems; homodimer; also called recombinant human VEGF-A

human VEGF-A165 [2] = target: T1, human VEGF-A165; experiment: SPR (Biacore T100), VEGF-A immobilised, VEGFR-2-Fc5 analyte, bivalent analyte fit

koff (human VEGF-A165 [1]): ~0.0002 s⁻¹
Ka (human VEGF-A165 [2]): 1e+08 M⁻¹
Kd (human VEGF-A165 [2]): 10 nM
koff (human VEGF-A165 [2]): 0.0002 s⁻¹
kon (human VEGF-A165 [2]): 20000 M⁻¹ s⁻¹
B1: human VEGFR-2-Fc5 (Fc fusion)
chain: not shown
notes: also called VEGF Receptor-2
